Measurements from the supplement of paper PMC9428881.
± gives the standard error.

Assay: background-corrected fluorescence of 3'-dye-labeled ssDNA relative to brightest sequence (3'-GCGCG) (fraction); higher = brighter dye fluorescence (less quenching)
Protocol: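 Single-stranded DNA is synthesized in situ on glass microarrays by 5'->3' photolithographic synthesis, with a Cy3 or Cy5 phosphoramidite coupled at the 3' end next to all 1024 permuted pentamers P1-P5. The construct is 5'-T5-(ACGT minus P5..P1 trinucleotides)-T15-P5P4P3P2P1-dye-3'; the dye is a 3' terminal modification, not part of the sequence. Arrays were scanned at 532 nm (Cy3) or 635 nm (Cy5), background from unlabeled oligos was subtracted, and values are averaged over 10 replicate features per array and at least 3 independent syntheses.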

Sequence | background-corrected fluorescence (dye: Cy3 (3' terminal)) | background-corrected fluorescence (dye: Cy5 (3' terminal))
TTTTTTCATGCTCATGATCATTTTTTTTTTTTTTTGAGCG [GCGAG] | 0.654 ± 0.03 | 0.526 ± 0.059
TTTTTTCATCATGATCATGATTTTTTTTTTTTTTTGGCGC [CGCGG] | 0.627 ± 0.028 | 0.551 ± 0.064
TTTTTTGCGCATGATGAGCATTTTTTTTTTTTTTTATCCT [TCCTA] | 0.447 ± 0.015 | 0.348 ± 0.02
TTTTTTGATGCTCATGCTGATTTTTTTTTTTTTTTCAGAC | 0.451 ± 0.024 | 0.372 ± 0.017
TTTTTTCAGCATGATCATGATTTTTTTTTTTTTTTGTCGC [CGCTG] | 0.556 ± 0.034 | 0.444 ± 0.032
TTTTTGCATCATCATCATGATTTTTTTTTTTTTTTTGGGC [CGGGT] | 0.591 ± 0.026 | 0.516 ± 0.027
TTTTTTGATGATGAGCATGCTTTTTTTTTTTTTTTCCCTA [ATCCC] | 0.458 ± 0.025 | 0.35 ± 0.019
TTTTTTGAGCATGATCATGATTTTTTTTTTTTTTTCTCGC [CGCTC] | 0.548 ± 0.032 | 0.412 ± 0.035
TTTTTGCAGCATGATGCGCATTTTTTTTTTTTTTTTTCAT [TACTT] | 0.519 ± 0.033 | 0.378 ± 0.021
TTTTTTCATGATGATCATGATTTTTTTTTTTTTTTGCCGC [CGCCG] | 0.549 ± 0.017 | 0.434 ± 0.033
TTTTTTGCTGCTGATGCTGATTTTTTTTTTTTTTTAACAC [CACAA] | 0.421 ± 0.035 | 0.306 ± 0.021
TTTTTTGATGATGATCATCATTTTTTTTTTTTTTTCCCGG [GGCCC] | 0.625 ± 0.027 | 0.562 ± 0.072
TTTTTGCATGCTGAGCATCATTTTTTTTTTTTTTTTACTG [GTCAT] | 0.499 ± 0.024 | 0.373 ± 0.027
TTTTTGCATGATCATCATGCTTTTTTTTTTTTTTTTCGGA [AGGCT] | 0.734 ± 0.076 | 0.648 ± 0.024
TTTTTTCATGATGCTGCTCATTTTTTTTTTTTTTTGCAAG [GAACG] | 0.503 ± 0.04 | 0.422 ± 0.029
TTTTTGCATGCTCATCATGATTTTTTTTTTTTTTTTAGGC [CGGAT] | 0.617 ± 0.027 | 0.464 ± 0.026
TTTTTTGATGCTCAGCAGCATTTTTTTTTTTTTTTCAGTT [TTGAC] | 0.598 ± 0.018 | 0.434 ± 0.015
TTTTTTGCTCATCATGCTGATTTTTTTTTTTTTTTAGGAC [CAGGA] | 0.479 ± 0.014 | 0.383 ± 0.033
TTTTTTCATCAGCATGCGCATTTTTTTTTTTTTTTGGTAT [TATGG] | 0.525 ± 0.017 | 0.411 ± 0.025
TTTTTTCATGATGCTGCTGATTTTTTTTTTTTTTTGCAAC [CAACG] | 0.469 ± 0.014 | 0.319 ± 0.017
TTTTTTGAGCATGCGCAGCATTTTTTTTTTTTTTTCTATT [TTATC] | 0.527 ± 0.047 | 0.402 ± 0.056
TTTTTGCATGATGCTCATCATTTTTTTTTTTTTTTTCAGG [GGACT] | 0.606 ± 0.034 | 0.486 ± 0.034
TTTTTTGATGCGCAGCATGCTTTTTTTTTTTTTTTCATTA [ATTAC] | 0.554 ± 0.021 | 0.398 ± 0.027
TTTTTGCATGATGCTGATGATTTTTTTTTTTTTTTTCACC [CCACT] | 0.382 ± 0.011 | 0.265 ± 0.016
TTTTTTCAGCATGATCATGCTTTTTTTTTTTTTTTGTCGA [AGCTG] | 0.645 ± 0.017 | 0.548 ± 0.034
TTTTTGCAGCATGCTGAGCATTTTTTTTTTTTTTTTTACT [TCATT] | 0.49 ± 0.013 | 0.361 ± 0.047
TTTTTGCATGCTCATGAGCATTTTTTTTTTTTTTTTAGCT [TCGAT] | 0.57 ± 0.025 | 0.42 ± 0.035
TTTTTTGCTCAGCAGCATGCTTTTTTTTTTTTTTTAGTTA [ATTGA] | 0.57 ± 0.0086 | 0.409 ± 0.016
